Columns and labels:
[1] = system: INS-1 cells; test: Proinsulin-NanoLuc Gaussia luciferase insulin secretion assay in INS-1 cells; assay type: cell-based, rat; details: INS-1 stably expressing Proinsulin-NanoLuc; G20 mM + 100 nM Ex4; 20 mM KCl
Experimental: INS-1 cells were infected with the virus by spinfection (800 g, 1 hour at 37 degrees Celsius) and then changed to fresh INS-1 growth media. Seventy-two (72) hours after transfection, INS-1 cells were treated with 5 μg/ml Blasticidin (Invitrogen) for 7 days to select for Proinsulin-NanoLuc expressing cells. For insulin secretion assay, the cells (5×10^4-1×10^5 cells/well in 96 well) were pre-cultured in 3 mM glucose KRBB (100 μl/well). The cells were then incubated in KRBB (100 μl/well) with 3 mM and then sequentially incubated with 20 mM glucose with or without 100 nM Exendine-4 or 3 mM glucose with 20 mM KCl (100 μl/well). To determine Gaussia Luciferase activity as indicator of insulin secretion levels, 10 μl of samples are used for Luciferase assay using Pierce Gaussia Luciferase Flash Assay Kit (Prod #16159, Thermo Scientific).

[2] = system: human islet-like organoids; test: Gaussia luciferase insulin secretion assay in human islet-like organoids; assay type: cell-based; details: 10 to 100 per assay
Experimental: Mouse islets, human islets and human islets like organoids were plated in their respective growth media with 10 μg/ml Polybrene® polymer (Santacruz). Viruses were then added. After overnight culture, cells were placed in fresh growth media. […] Then, insulin secretion assays were performed. […] The cells were then incubated in KRBB (100 μl/well) with 3 mM for 30 min and then sequentially incubated with 20 mM glucose with or without 100 nM Exendin-4 or 3 mM glucose with 20 mM KCl (100 μl/well). To determine Gaussia Luciferase activity as indicator of insulin secretion levels, 10 μl of samples are used for Luciferase assay using Pierce Gaussia Luciferase Flash Assay Kit (Prod #16159, Thermo Scientific).

[3] = system: human islet-like organoids; test: hIAPP toxicity, propidium iodide staining of islet-like organoids; assay type: cell-based
Description: FIG. 7 is a schematic showing modeling of human Type 2 diabetes in a dish. Generation of functional human organs such as a liver, pancreas, and islets provides new therapeutic strategies in drug-screening and modeling of human type 2 diabetes.
Generation of functional human organs according to methods described herein provides new strategies for drug-screening and disease modeling. Specifically, functional organoids can be used as models of type 2 diabetes for drug screening (FIG. 7).

[4] = system: hiPSC-derived islet organoids; test: Gene expression (qPCR) in hiPSC-derived islet organoids treated with WNT proteins; assay type: cell-based, human; details: for ERRγ-mitochondrial metabolic pathway: FIGS. 12A-12H; for Esrrg gene expression / expression of mitochondrial genes involved in oxidative phosphorylation (Cox7a2, Ndufa1, Ndufa7), lactate dehydrogenase (Ldha) and Fltp: organoids generated in the absence of hADSC or HUVECs, increasing doses rhWNT4 0-200 ng/ml, rhWNT5a 0-400 ng/ml
Experimental: Human PSCs, including iPSC or ESC, were initially cultured in matrigel-coated plates (2 dimensional (2D) cultures. Cells were then treated with Accutase (Innovative Cell Technologies, Inc., San Diego, Calif.) to generate a single cell suspension, washed with PBS and centrifuged at 1000-1300 rpm for 5 minutes to pellet cells. Cells were resuspended with 3DKG Stem TeSR™ Base Medium (Stemcell Technologies, Cambridge, Mass.) with 10 μM Y-27632 (a RHO/ROCK pathway inhibitor compound) and cultured for an additional for 5 to 7 days until PSC sphere growth reached 50-100 μm diameter. Media was then replaced with differentiation media supplemented with 0.015% Kelcogel and 0.3% Methylcellulose. The culture medium was changed to differentiation medium ([…]) containing 100 ng/ml human Activin (R&D Systems), 25 ng/ml recombinant human Wnt3a (R&D Systems) or 3 μM CHIR99021, a glycogen synthase kinase GSK-3 inhibitor (Axon Medchem, Reston, Va.; or Selleckchem) for 1 day and then to differentiation medium (S1) containing 100 ng/ml human Activin for another 2 days (Stage 1, Pancreatic Endoderm). Subsequently, the medium was replaced with differentiation medium (S2) containing 50 ng/ml FGF7 (R&D Systems) for 2 days, and then with differentiation medium (S3) containing 50 ng/ml FGF7, 0.25 μM SANT-1 (Sigma), 1 μM Retinoic Acid (Sigma), 100 nM LDN193189 (an ALK2 and ALK3 inhibitor, Sigma) and 100 nM α-Amyloid Precursor Protein Modulator TPB for 3 days. Subsequently, this medium was replaced with differentiation medium (S4) containing 0.25 μM SANT-1, 50 nM Retinoic Acid, 10 μM Alk5 inhibitor II, 1 μM T3 for 3 days. Subsequently, the medium was replaced with differentiation medium (S5) containing 100 nM LDN193189, 100 nM Gamma Secretase inhibitor XX GSiXX (Millipore) 10 μM Alk5 inhibitor II, 1 μM T3 for 7 days. Subsequently, the medium was replaced with differentiation medium (S5) containing 10 uM Trolox (Calbiochem), 2 μM R428 (Selleckchem), 1 mM N-acetyl cysteine, 10 μM Alk5 inhibitor II, 1 μM T3 for an additional 7 to 20 days. After confirmation of the insulin gene expression by either reporter expression or qPCR (typically on day 20-30), the medium was changed to differentiation medium (S5) containing 10 μM Trolox (Calbiochem), 2 μM R428 (Selleckchem), 1 mM N-acetyl cysteine, 10 μM Alk5 inhibitor II, 1 μM T3 and 100 ng/ml recombinant human (rh)Wnt4 (R&D Systems), 400 ng/ml rhWnt5a, or 50% Wnt5a conditioned medium for 1-20 days. Wnt5a conditioned medium was prepared by culturing an L-Wnt5a cell line (ATCC, CRL-2814) in DMEM with 10% FBS, 1% Penicillin-streptomycin for 4 days after cells had reached 70-100% confluence in T175-T225 Frasko cell culture flasks.
Total RNA was extracted using TRIzol reagent (Invitrogen) and RNeasy KIT (Qiagen). Reverse transcription was performed with a SuperScript III First-Strand Synthesis System kit (Invitrogen) or PrimeScript RT reagent kit (TAKARA). Real time quantitative RT-PCR (qPCR) was performed using SYBR Green (Bio-Rad).
(FIG. 12A). […] In addition, mitochondrial genes involved in oxidative phosphorylation (Cox7a2, Ndufa1, Ndufa7), lactate dehydrogenase (Ldha) and Fltp (a Wnt/planar cell polarity (PCP) effector and reporter gene) were induced in hiPSC-derived islet organoids that were generated in the absence of supporting hADSC or HUVECs, in response to increasing doses of rhWNT4 (0, 10, 25, 50, 100, 200 ng/ml) and rhWNT5a (0, 25, 50, 100, 200, 400 ng/ml), (FIG. 12C). Mitochondrial (Mitotracker; Mito-Red) and insulin (Insulin-GFP) levels were increased in hiPSC-derived islet organoids (day 27) after 8 days treatment with PBS or WNT4 (100 ng/ml). (FIG. 12D). Human iPSC-derived islet organoids (day 27) were generated after 8 days treatment with PBS or WNT4 (100 ng/ml). (FIG. 12E). […]

[5] = system: hiPSC-derived islet organoids; test: Fluorescence imaging and FACS analysis of hiPSC-derived islet organoids (Mitotracker, Insulin-GFP); assay type: cell-based, human; details: organoids day 27, 8 days treatment; for Insulin production (FACS): rhWNT4 100 ng/ml, rhWNT5a 400 ng/ml, conditioned media 50%, compared with PBS and control conditioned media
Experimental: FIGS. 12A-12H show a set of bar graphs and images illustrating the role of WNT proteins in the metabolic maturation of iPSC-derived islet organoids. […] FIG. 12B is a bar graph showing the induction of Esrrg gene expression in hiPSC-derived islet organoids, generated in the absence of supporting hADSC or HUVECs, in response to increasing doses of WNT4 (0, 10, 25, 50, 100, 200 ng/ml) and WNT5a (0, 25, 50, 100, 200, 400 ng/ml). FIG. 12C is a bar graph showing the induction of mitochondrial genes involved in oxidative phosphorylation (Cox7a2, Ndufa1, Ndufa7), lactate dehydrogenase (Ldha) and Fltp (a Wnt/planar cell polarity (PCP) effector and reporter gene) in hiPSC-derived islet organoids, generated in the absence of supporting hADSC or HUVECs, in response to increasing doses of WNT4 (0, 10, 25, 50, 100, 200 ng/ml) and WNT5a (0, 25, 50, 100, 200, 400 ng/ml). […] FIGS. 12F, 12G, and 12H show a set of bar graphs illustrating the results of FACS analyses of hiPSC-derived islet organoids (day 27) after 8 days treatment with PBS, WNT4 (100 ng/ml), WNT5a (400 ng/ml), control fibroblast conditioned media (50%), or WNT5a secreting fibroblast conditioned media (50%). The WNT proteins used were recombinant human (rh) proteins.
Human PSCs, including iPSC or ESC, were initially cultured in matrigel-coated plates (2 dimensional (2D) cultures. Cells were then treated with Accutase (Innovative Cell Technologies, Inc., San Diego, Calif.) to generate a single cell suspension, washed with PBS and centrifuged at 1000-1300 rpm for 5 minutes to pellet cells. Cells were resuspended with 3DKG Stem TeSR™ Base Medium (Stemcell Technologies, Cambridge, Mass.) with 10 μM Y-27632 (a RHO/ROCK pathway inhibitor compound) and cultured for an additional for 5 to 7 days until PSC sphere growth reached 50-100 μm diameter. Media was then replaced with differentiation media supplemented with 0.015% Kelcogel and 0.3% Methylcellulose. […]

[6] = system: hiPSC-derived islet organoids; test: Insulin secretion assay (human c-peptide ELISA) of hiPSC-derived islet organoids; assay type: cell-based; details: organoids day 22, 100 ng/ml for 12 days, G3 mM, G20 mM, KCL20 mM, without hADSC and HUVECs
Experimental: Insulin release from intact islets was monitored using batch incubation methods (Yoshihara et al., 2010, Nat. Commun. 1:127). Briefly, overnight-cultured isolated pancreatic islets (RPMI-1640 supplemented with 10% (v/v) fetal bovine serum and 1% (v/v) Antibiotic-Antimycotic (Gibco)) were pre-cultured at 37° C. for 30 min (Krebs-Ringer bicarbonate buffer (KRBB) containing 129.4 mM NaCl, 3.7 mM KCl, 2.7 mM CaCl2, 1.3 mM KH2PO4, 1.3 mM MgSO4, 24.8 mM NaHCO3 (equilibrated with 5% CO2, 95% O2, pH7.4), 10 mM HEPES and 0.2% (v/v) BSA (fraction V, Sigma) (KRBH) with 3 mM glucose). Pancreatic islets were then incubated in KRBH buffer (500 μl/10 islets) with 3 mM or 20 mM glucose to determine insulin secretion levels. After 30 min, islets were pelleted by centrifugation and insulin levels determined by ELISA (Rat/mouse Insulin ELISA KIT (Millipore) and Human Insulin ELISA KIT (Millipore) for mouse and human islets, respectively). For human iPSC derived cells, the cells (1×10^6 cells/well in 24 well) were pre-cultured in 3 mM glucose KRBH buffer (500 μl/well). The cells were then incubated in KRBB (200 μl/well) with 3 mM or 20 mM glucose to determine c-peptide secretion levels as indicator of insulin secretion levels. After 30 min, the cells were pelleted by centrifugation and c-peptide levels were determined by human c-peptide ELISA KIT (Millipore).

Molecule | expression of mitochondrial genes involved in oxidative phosphorylation (Cox7a2, Ndufa1, Ndufa7), lactate dehydrogenase (Ldha) and Fltp [4] | Luciferase secretion (insulin secretion) [1] | stimulated insulin secretion of pooled organoids (secreted luciferase) [2] | ERRγ-mitochondrial metabolic pathway [4] | Esrrg gene expression [4] | Insulin production (FACS) [5] | other results
[Cl-].[K+] [potassium chloride] |  | increased | robust |  |  |  | 
Exendin-4 |  | increased |  |  |  |  | 
GLP-1: incretin |  |  | enhanced GSIS |  |  |  | 
hIAPP: human amyloid polypeptide, an inducer of β cell loss in type 2 diabetic patients (KCNTATCATQRLANFLVHSSNNFGAILSSTNVGSNTY; Islet amyloid polypeptide; UniProt P10997 34-70, looked up) |  |  |  |  |  |  | G0/G1 arrest ([3]; 24 hours): dose-dependently induced G0/G1 arrest; apoptosis (propidium iodide staining in G0/G1 stage cells) ([3]; increasing concentrations): induces apoptosis
rhWNT5a: recombinant human Wnt5a protein (protein, UniProt P41221 62-380, looked up) Protein Wnt-5a: IIGAQPLCSQLAGLSQGQKKLCHLYQDHMQYIGEGAKTGIKECQYQFRHRRWNCSTVDNTSVFGRVMQIGSRETAFTYAVSAAGVVNAMSRACREGELSTCGCSRAARPKDLPRDWLWGGCGDNIDYGYRFAKEFVDARERERIHAKGSYESARILMNLHNNEAGRRTVYNLADVACKCHGVSGSCSLKTCWLQLADFRKVGDALKEKYDSAAAMRLNSRGKLVQVNSRFNSPTTQDLVYIDPSPDYCVRNESTGSLGTQGRLCNKTSEGMDGCELMCCGRGYDQFKTVQTERCHCKFHWCCYVKCKKCTEIVDQFVCK | induced |  |  | activate | induced | found | 
rhWNT4: recombinant human (rh)Wnt4 protein (R&D Systems) (protein, UniProt P56705 23-351, looked up) Protein Wnt-4: SNWLYLAKLSSVGSISEEETCEKLKGLIQRQVQMCKRNLEVMDSVRRGAQLAIEECQYQFRNRRWNCSTLDSLPVFGKVVTQGTREAAFVYAISSAGVAFAVTRACSSGELEKCGCDRTVHGVSPQGFQWSGCSDNIAYGVAFSQSFVDVRERSKGASSSRALMNLHNNEAGRKAILTHMRVECKCHGVSGSCEVKTCWRAVPPFRQVGHALKEKFDGATEVEPRRVGSSRALVPRNAQFKPHTDEDLVYLEPSPDFCEQDMRSGVLGTRGRTCNKTSKAIDGCELLCCGRGFHTAQVELAERCSCKFHWCCFVKCRQCQRLVELHTCR | induced |  |  | activate | induced | found | Mitochondrial (Mitotracker; Mito-Red) and insulin (Insulin-GFP) levels ([5]; 100 ng/ml): increased; functional maturation based on secretion of human c-peptide ([6]; listed as Wnt4): sufficient to induce in vitro functional maturation; functional maturation based on secretion of human c-peptide ([6]; listed as rhWnt4): functional maturation

Source: patent US11685901B2, “Compositions and methods for organoid generation and disease modeling” (Salk Institute for Biological Studies, priority 2016, dated 2023)
